Assay results: US8841274B2, “Protein arginine N-methyltransferase-5 method of cancer treatment” (priority 2009, dated 2014)

What was measured:
PRMT5 [1] = molecular target: T1, PRMT5 (Homo sapiens, UniProt O14744); test: GST binding assay with U2OS cell lysate, PRMT5 immunoblot; parameters: The indicated GST proteins were incubated with U2OS cell lysate; endogenous in cells; host or cells: U2OS; settings: GST-E2F-1 proteins incubated with U2OS cell lysate
Description: It was then assessed whether E2F-1 could interact with PRMT5 and thereafter the role of each R residue in mediating the interaction. […] The indicated GST proteins were incubated with U2OS cell lysate, and bound proteins immunoblotted using anti-GST (for input GST), DP-1 or PRMT5 antibodies. Binding to DP-1, the major heterodimeric partner for E2F-1 (Stevens and La Thangue 2003), served as a control since it bound equally to each of the E2F-1 proteins.
GST or GST tagged proteins (10 μg each) were incubated with agarose beads and damaged or undamaged U2OS cell lysates for 3 h. Beads were then washed with TNN buffer 3 times. SDS sample buffer was added to beads and samples were analysed by immunoblotting.
Target sequence in this assay (O14744 whole entry): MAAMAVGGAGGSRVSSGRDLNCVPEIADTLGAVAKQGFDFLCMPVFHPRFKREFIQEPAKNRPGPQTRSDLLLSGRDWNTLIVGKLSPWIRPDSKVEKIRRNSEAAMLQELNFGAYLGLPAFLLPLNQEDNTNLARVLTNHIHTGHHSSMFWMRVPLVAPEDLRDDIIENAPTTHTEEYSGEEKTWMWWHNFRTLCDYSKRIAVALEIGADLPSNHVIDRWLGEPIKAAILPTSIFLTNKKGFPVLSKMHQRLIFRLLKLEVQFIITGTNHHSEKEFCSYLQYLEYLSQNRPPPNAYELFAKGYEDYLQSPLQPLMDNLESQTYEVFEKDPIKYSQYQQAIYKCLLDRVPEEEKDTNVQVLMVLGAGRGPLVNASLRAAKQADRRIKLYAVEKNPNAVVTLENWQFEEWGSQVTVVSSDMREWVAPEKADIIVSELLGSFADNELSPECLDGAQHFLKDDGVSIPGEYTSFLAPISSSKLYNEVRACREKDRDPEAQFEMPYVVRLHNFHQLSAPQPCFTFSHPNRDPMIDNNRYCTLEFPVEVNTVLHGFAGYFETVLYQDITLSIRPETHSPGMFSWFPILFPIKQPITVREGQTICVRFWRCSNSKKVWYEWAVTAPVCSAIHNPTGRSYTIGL

[2] = test system: p73-luciferase or cyclinE-luciferase; test: Reporter assay with E2F-responsive promoters; format: cell-based; settings: U2OS cells, 48 h, equivalent protein level; compared to wild-type E2F-1; n=3
Description: To further explore the role of arginine methylation in the transcription properties of E2F-1, wild-type E2F-1 was compared with the KK and KKK mutants in a reporter-based transfection assay, using E2F-responsive promoters derived from E2F target genes. The assay was performed under conditions in which each mutant protein was expressed at an equivalent level to wild-type E2F-1 (FIG. 4aii and bii), thus ruling out any difference in activity that could be attributed to protein levels. […] FIGS. 4a and b show the transcription properties of wild-type E2F-1, KK and KKK mutants. U2OS cells were transfected with expression vectors encoding WT or mutant E2F-1 protein, together with p73-luciferase (A) or cyclinE-luciferase (B) for 48 h as indicated, and pCMV-βgal to monitor transfection efficiency. Relative luciferase activity (luciferase/βgal) is shown together with expression level of ectopic proteins; n=3. […] PRMT5 (P) or control (C) non-targeting siRNA was transfected into U2OS cells together with p73-luciferase (i) or cyclinE-luciferase (ii) for 48 h, together with pCMV-βgal to monitor transfection efficiency. Relative luciferase activity is shown together with expression level of the ectopic proteins.
Cells were transfected with expression vectors (1 μg) encoding WT or the mutant E2F-1 proteins as indicated with E2F responsive luciferase reporters, namely p73-luciferase or cyclinE-luciferase, together with pCMV-βgal to monitor transfection efficiency. Cells were harvested, lysed 48 h post-transfection and luciferase activity measured as previously described (Janson et al 2008).

PRMT5 [3] = molecular target: T1, PRMT5; test: In vitro methyltransferase assay of E2F-1 proteins; format: biochemical; parameters: made in house; host or cells: U2OS cells (transient transfection, anti-Flag immunoprecipitation, elution); settings: about 1 μg protein, 3H labeled SAM; mutants compared with wild-type E2F-1
Description: To assess whether the RGRGR motif was a direct target for PRMT5 methylation, a series of mutant derivatives of E2F-1 were made in which each arginine (R) residue was substituted with a lysine residue (K; FIG. 1a), and the ability of the mutant derivative to be methylated in vitro then assessed. […] In FIG. 1b(i) each of the indicated proteins (about 1 μg) was used in the methylation reaction. In vitro methylated samples were analysed by SDS-PAGE as described below. E2F-1 is indicated. In FIG. 1b(ii) samples in FIG. 1b(i) were counted (3H cpm as indicated). Histones treated with PRMT5 served as the positive control. The data shown provide one example taken from two different experiments.
Flag-PRMT5 plasmid was transfected into U2OS cells for 48 h. Cells were lysed and Flag-PRMT5 was immunoprecipitated with agarose beads and then eluted. The elute was mixed with recombinant substrates (GST fusion proteins or histones) in methylation reaction buffer (50 mM Tris, 0.1 mM EDTA, 50 mM NaCl) with ^3H labeled SAM (as —CH3 group donor) to a volume of 40 μl and incubated at 30° C. for 90 min. Half of the reactions were then spotted onto p81 membrane circles (Whatman) and air dried. The membranes were then washed three times, 5 min each in 50 ml of wash buffer (46 mM NaHCO3, 4 mM Na2CO3, pH 9.2). After washing briefly with acetone, membranes were air dried, placed in scintillation vials, immersed in scintillation fluid (Beckman Coulter) and disintegrations per minute (DPM) measured in a scintillation counter. The other half of the reactions were run on SDS-PAGE gel and used to detect ^3H auto-radioisotope/methylation signal.
Target sequence in this assay (O14744 whole entry): as above
Target sequence in this assay (Q9BQA1 whole entry partner): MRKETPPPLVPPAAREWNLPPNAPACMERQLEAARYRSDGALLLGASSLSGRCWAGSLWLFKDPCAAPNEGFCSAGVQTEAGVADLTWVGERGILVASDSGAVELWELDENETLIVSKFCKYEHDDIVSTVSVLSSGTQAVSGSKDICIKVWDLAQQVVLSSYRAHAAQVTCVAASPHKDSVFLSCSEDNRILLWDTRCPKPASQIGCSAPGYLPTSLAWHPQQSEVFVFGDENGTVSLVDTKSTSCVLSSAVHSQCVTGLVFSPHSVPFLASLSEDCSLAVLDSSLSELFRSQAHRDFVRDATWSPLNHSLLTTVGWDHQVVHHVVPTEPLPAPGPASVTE

U2OS cells = test: Apoptosis (sub-G1) by FACS in U2OS cells; format: cell-based; settings: U2OS cells, expression vectors 48 h; relative to wild-type E2F-1; n=2
Description: Whether arginine methylation influences E2F-1-dependent apoptosis was investigated by comparing the ability of wild-type E2F-1 to the KK and KKK mutants to induce cells with a sub-G1 DNA content (Stevens et al 2003). […] U2OS cells were transfected with expression vectors encoding wild-type E2F-1, KK and KKK as indicated for 48 h and analysed by FACS as described. The graph represents the relative change in sub-G1 populations compared to the empty vector control treatment; n=2.
The graph (i) represents the relative number of sub-G I cells (compared to the control treatment) in the indicated conditions; and (ii) the level of PRMT5 and E2F-1; n=3.
PRMT5 (P) or control (C) non-targeting siRNA (25 nM) was transfected into HCT116 p53+/+ (i), HCT116 p53−/− (ii) or U2OS (iii) cells and the cells were harvested 72 h post-transfection and analysed by FACS. The graph represents the actual number of sub-G1 cells in the indicated conditions, and the immunoblot the level of PRMT5 and actin control; n=3.
PRMT5 (P), E2F-1 (E) or control (C) non-targeting siRNA was transfected into U2OS cells and harvested 72 h post-transfection and analysed by FACS as described.
Cells were transfected with the indicated expression vectors together with pBB14-GFP (for 48 h) to monitor transfection efficiency or siRNA (for 48 h or 72 h) with or without treatment of the DNA damage agent for the last 16 h. Then, cells were fixed and stained with propidium iodide and analyzed by Flow Cytometry.

KKK: methylation-defective E2F-1 protein containing the mutations R109K, R111K and R113K
binding to PRMT5 (PRMT5 [1]): completely devoid of PRMT5 binding
transcriptional activity (relative luciferase activity) [2]: increased transcriptional activity
in vitro methylation by PRMT5 (PRMT5 [3]): could not be methylated by PRMT5
apoptosis (sub-G1 population) (U2OS cells): increased levels of apoptosis
